The source of these data is patent US6953675.

One assay concerns the target WN. As to the kind of experiment: competitive binding ELISA with WN as the surrogate Ag, from ID50 values. For orientation: In an ELISA, binding on a coated surface is turned into a signal by an enzyme label.
The target of assay [1] is antigen of LL2 (not named; LL2 is called an anti-B-cell monoclonal antibody). As to the kind of experiment: cell binding assay, calculated from the ID50 values; cells not named.
Assay [2] addresses antigen of hMN14 (not named). As to the kind of experiment: competitive binding assay; format and target not stated.
Assay [3] concerns the target antigen of LL2 (not named; LL2 is called an anti-B-cell monoclonal antibody). Described as above.

In the case of “LL2 F(ab')2, DOX-dextran conjugated (5.1 DOX/F(ab')2) (antibody)”, in the assay with WN, the Immunoreactivity (%), ELISA is 42.2%. Moreover, the Immunoreactivity (%), Cell binding in assay [1] was 41.9%.
Substance “LL2 F(ab')2, non-conjugated (murine mAb, naturally glycosylated in the V domain) (antibody)” displayed an Immunoreactivity (%), ELISA in the assay with WN of 100%. Besides, the Immunoreactivity (%), Cell binding in assay [1] is 100%.
Substance “hMN14 F(ab')2 with the grafted LL2 Vk glycosylation site, LC-DTPA conjugated at the Vk-CHO (2.1 chelators/F(ab')2) (antibody)” yielded an Immunoreactivity (from ID50 against unmodified control F(ab')2) in assay [2] of 100%.
“mLL2 F(ab')2, DTPA conjugated at random lysines (2.2 chelators/F(ab')2) (antibody)” registered an Immunoreactivity (from ID50 against unmodified control F(ab')2) in assay [3] of 75%.
On the same count and under the same terms, the value for “mLL2 F(ab')2, DTPA conjugated at random lysines (4.3 chelators/F(ab')2) (antibody)” was 21%; that for “mLL2 F(ab')2, DTPA conjugated at the Vk-CHO (5.5 chelators/F(ab')2) (antibody)” was 100%; that for “mLL2 F(ab')2, LC-DTPA conjugated at the Vk-CHO (4.6 chelators/F(ab')2) (antibody)” was 100%.
